Measurements published in the Human Domainome abundance scans (Beltran et al. 2025).
± gives the uncertainty stated by the source.

Assay: abundance fitness (aPCA) (normalised: wild type 0, dead -1); higher = more abundant; growth selection in yeast, the domain comes from the species named
Conditions: Homo sapiens

Point of comparison: “Lipoamide acyltransferase component of branched-chain alpha-keto acid dehydrogenase complex, mitochondrial L206V, P11182”, abundance fitness -0.026 ± 0.043. Against it:
- Lipoamide acyltransferase component of branched-chain alpha-keto acid dehydrogenase complex, mitochondrial L206D, P11182 — within error, 0.01 ± 0.065
- Lipoamide acyltransferase component of branched-chain alpha-keto acid dehydrogenase complex, mitochondrial L206E, P11182 — within error, 0.007 ± 0.06
- Lipoamide acyltransferase component of branched-chain alpha-keto acid dehydrogenase complex, mitochondrial L206F, P11182 — within error, -0.353 ± 0.36
- Lipoamide acyltransferase component of branched-chain alpha-keto acid dehydrogenase complex, mitochondrial L206G, P11182 — lower, -0.149 ± 0.033
- Lipoamide acyltransferase component of branched-chain alpha-keto acid dehydrogenase complex, mitochondrial L206K, P11182 — within error, -0.113 ± 0.065
- Lipoamide acyltransferase component of branched-chain alpha-keto acid dehydrogenase complex, mitochondrial L206N, P11182 — within error, -0.052 ± 0.066
- Lipoamide acyltransferase component of branched-chain alpha-keto acid dehydrogenase complex, mitochondrial L206P, P11182 — lower, -0.291 ± 0.063
- Lipoamide acyltransferase component of branched-chain alpha-keto acid dehydrogenase complex, mitochondrial L206Q, P11182 — within error, -0.028 ± 0.051
- Lipoamide acyltransferase component of branched-chain alpha-keto acid dehydrogenase complex, mitochondrial L206R, P11182 — within error, -0.071 ± 0.035
- Lipoamide acyltransferase component of branched-chain alpha-keto acid dehydrogenase complex, mitochondrial L206S, P11182 — within error, -0.072 ± 0.049
- Lipoamide acyltransferase component of branched-chain alpha-keto acid dehydrogenase complex, mitochondrial L206W, P11182 — lower, -0.135 ± 0.052
- Lipoamide acyltransferase component of branched-chain alpha-keto acid dehydrogenase complex, mitochondrial L209A, P11182 — within error, 0.037 ± 0.043
- Lipoamide acyltransferase component of branched-chain alpha-keto acid dehydrogenase complex, mitochondrial L209C, P11182 — within error, -0.052 ± 0.057
- Lipoamide acyltransferase component of branched-chain alpha-keto acid dehydrogenase complex, mitochondrial L209D, P11182 — lower, -0.203 ± 0.045
- Lipoamide acyltransferase component of branched-chain alpha-keto acid dehydrogenase complex, mitochondrial L209E, P11182 — lower, -0.153 ± 0.04
- Lipoamide acyltransferase component of branched-chain alpha-keto acid dehydrogenase complex, mitochondrial L209F, P11182 — lower, -0.211 ± 0.098
- Lipoamide acyltransferase component of branched-chain alpha-keto acid dehydrogenase complex, mitochondrial L209G, P11182 — within error, -0.081 ± 0.034
- Lipoamide acyltransferase component of branched-chain alpha-keto acid dehydrogenase complex, mitochondrial L209I, P11182 — within error, 0.047 ± 0.17
- Lipoamide acyltransferase component of branched-chain alpha-keto acid dehydrogenase complex, mitochondrial L209K, P11182 — within error, 0.079 ± 0.087
- Lipoamide acyltransferase component of branched-chain alpha-keto acid dehydrogenase complex, mitochondrial L209N, P11182 — within error, -0.138 ± 0.073
- Lipoamide acyltransferase component of branched-chain alpha-keto acid dehydrogenase complex, mitochondrial L209P, P11182 — lower, -0.226 ± 0.051
- Lipoamide acyltransferase component of branched-chain alpha-keto acid dehydrogenase complex, mitochondrial L209Q, P11182 — within error, -0.072 ± 0.043
- Lipoamide acyltransferase component of branched-chain alpha-keto acid dehydrogenase complex, mitochondrial L209R, P11182 — within error, 0.006 ± 0.036
- Lipoamide acyltransferase component of branched-chain alpha-keto acid dehydrogenase complex, mitochondrial L209S, P11182 — the same, -0.026 ± 0.041
- Lipoamide acyltransferase component of branched-chain alpha-keto acid dehydrogenase complex, mitochondrial L209T, P11182 — lower, -0.131 ± 0.058
- Lipoamide acyltransferase component of branched-chain alpha-keto acid dehydrogenase complex, mitochondrial L209V, P11182 — within error, 0.006 ± 0.039
- Lipoamide acyltransferase component of branched-chain alpha-keto acid dehydrogenase complex, mitochondrial L209W, P11182 — lower, -0.27 ± 0.047
- Lipoamide acyltransferase component of branched-chain alpha-keto acid dehydrogenase complex, mitochondrial L209Y, P11182 — lower, -0.232 ± 0.087
- Lipoamide acyltransferase component of branched-chain alpha-keto acid dehydrogenase complex, mitochondrial M182A, P11182 — within error, 0.018 ± 0.072
- Lipoamide acyltransferase component of branched-chain alpha-keto acid dehydrogenase complex, mitochondrial M182C, P11182 — lower, -0.478 ± 0.12
- Lipoamide acyltransferase component of branched-chain alpha-keto acid dehydrogenase complex, mitochondrial M182I, P11182 — lower, -0.408 ± 0.24
- Lipoamide acyltransferase component of branched-chain alpha-keto acid dehydrogenase complex, mitochondrial M182T, P11182 — lower, -0.173 ± 0.075
- Lipoamide acyltransferase component of branched-chain alpha-keto acid dehydrogenase complex, mitochondrial N184E, P11182 — lower, -0.859 ± 0.39
- Lipoamide acyltransferase component of branched-chain alpha-keto acid dehydrogenase complex, mitochondrial N184G, P11182 — lower, -0.294 ± 0.093
